The source of these data is publication PMC5647379, “Calmodulin confers calcium sensitivity to the stability of the distal intracellular assembly domain of Kv7.2 channels” (Scientific Reports, 2017).

What is called EC50 is the concentration at which the effect is half-maximal.

Experiment [1] deals with T1, dansylated calmodulin (D-CaM, 5-(dimethylamino)naphtalene-1-sulfonyl-calmodulin) (rat, UniProt P0DP29 1-149, dansyl (5-(dimethylamino)naphtalene-1-sulfonyl) label, residue not stated). Put plainly: other fluorescence titration; D-CaM 12.5 nM in the cuvette, increasing concentrations of GST-fusion protein; no Ca2+ (EGTA 10 mM); Tris-HCl 25 mM pH 7.4, KCl 120 mM, NaCl 5 mM, MgCl2 2 mM; 25 °C; apparent affinity (EC50 of a Hill fit to the fluorescence enhancement). The following applies: both partners purified.

For experiment [2], the target named is T1, dansylated calmodulin (D-CaM, …). Description: other fluorescence titration; as a2 but with an excess of free Ca2+ (3.9 µM; 9.63 mM Ca2+ added to the Fluorescence buffer); apparent affinity (EC50). As to conditions: both partners purified.

B1: GST-Kv7.2 AB (helices AB fused to GST) (domain or fragment)
chain: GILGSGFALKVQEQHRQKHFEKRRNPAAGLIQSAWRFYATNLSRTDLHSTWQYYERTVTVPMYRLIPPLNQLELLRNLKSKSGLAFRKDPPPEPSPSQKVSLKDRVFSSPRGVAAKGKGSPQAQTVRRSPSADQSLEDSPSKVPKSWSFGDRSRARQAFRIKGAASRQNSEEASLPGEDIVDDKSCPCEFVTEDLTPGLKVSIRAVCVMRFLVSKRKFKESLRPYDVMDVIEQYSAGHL
As for B1, the concentration giving a half-maximal response (EC50) in experiment [1] worked out at 11 nM; in experiment [2], 27.1 nM.
